Source: patent US20250051413A1

Target: human IL-12 receptor (b1 and b2 chain) (human) (UniProt P42701)
Experiment: cell-based or functional assay

Sequence of Human recombinant IL-12 (P29460 23-328 limits assumed): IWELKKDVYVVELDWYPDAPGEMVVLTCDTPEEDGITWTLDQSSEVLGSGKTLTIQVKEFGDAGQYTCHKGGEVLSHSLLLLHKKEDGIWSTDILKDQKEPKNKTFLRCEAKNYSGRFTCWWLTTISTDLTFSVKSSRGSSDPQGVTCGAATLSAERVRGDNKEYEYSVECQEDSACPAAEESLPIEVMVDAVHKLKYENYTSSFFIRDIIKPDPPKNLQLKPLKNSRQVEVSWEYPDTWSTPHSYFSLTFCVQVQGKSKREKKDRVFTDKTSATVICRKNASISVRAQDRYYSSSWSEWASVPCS
Sequence of Human recombinant IL-12 (P29459 23-219 limits assumed): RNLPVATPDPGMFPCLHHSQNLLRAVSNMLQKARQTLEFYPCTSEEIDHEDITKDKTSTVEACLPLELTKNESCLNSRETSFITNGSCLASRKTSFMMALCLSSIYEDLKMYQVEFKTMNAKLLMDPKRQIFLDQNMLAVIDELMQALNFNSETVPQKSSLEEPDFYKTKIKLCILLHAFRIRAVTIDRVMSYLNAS
Sequence of human IL-12 receptor (b1 and b2 chain) (human) (Q99665 24-862, chain 2 of 2, other chains not shown): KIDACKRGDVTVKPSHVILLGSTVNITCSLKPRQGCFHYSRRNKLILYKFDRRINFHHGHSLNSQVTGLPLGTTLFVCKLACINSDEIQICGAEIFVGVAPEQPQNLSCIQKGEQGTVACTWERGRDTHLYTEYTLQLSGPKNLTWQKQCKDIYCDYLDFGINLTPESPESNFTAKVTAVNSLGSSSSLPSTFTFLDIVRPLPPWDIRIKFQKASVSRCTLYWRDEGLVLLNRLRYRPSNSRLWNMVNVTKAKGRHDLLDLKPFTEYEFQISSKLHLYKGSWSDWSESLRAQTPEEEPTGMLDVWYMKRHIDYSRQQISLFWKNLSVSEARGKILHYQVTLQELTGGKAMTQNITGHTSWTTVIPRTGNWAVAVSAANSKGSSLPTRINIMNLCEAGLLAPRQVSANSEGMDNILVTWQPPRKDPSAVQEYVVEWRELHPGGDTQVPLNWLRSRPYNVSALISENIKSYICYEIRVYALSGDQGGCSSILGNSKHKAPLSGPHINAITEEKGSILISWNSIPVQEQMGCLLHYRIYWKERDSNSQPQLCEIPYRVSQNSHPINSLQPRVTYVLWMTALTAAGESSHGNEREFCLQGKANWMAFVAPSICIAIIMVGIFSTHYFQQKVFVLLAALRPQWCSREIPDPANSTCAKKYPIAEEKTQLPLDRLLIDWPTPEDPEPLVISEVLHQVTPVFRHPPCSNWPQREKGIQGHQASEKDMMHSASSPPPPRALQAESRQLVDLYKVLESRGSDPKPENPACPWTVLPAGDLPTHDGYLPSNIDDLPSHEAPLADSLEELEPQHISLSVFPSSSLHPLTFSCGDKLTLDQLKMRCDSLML

E-max (Maximal response), p-STAT4 positive cells, CD8+ T cells and NK cells: 60 to 80% | EC50 of p-STAT4 induction in human PBMC, CD4+ T cells: 0.072 nM | EC50 of p-STAT4 induction in human PBMC, CD8+ T cells: 0.045 nM | EC50 of p-STAT4 induction in human PBMC, NK cells: 0.166 nM
Substance: Human recombinant IL-12 (from UniProt P29460 23-328; P29459 23-219) (ligand)
